Laboratory results published in patent US20200325237A1 (AVIDITY BIOSCIENCES, published 2020).
Where “and” joins values, the source holds several entries; their conditions need not be identical. Equal entries are not always repeated.

Legend:
[1] = target: T1, hTfR (human transferrin receptor, source and construct not stated) (human, UniProt P02786 89-760, limits assumed); assay: SPR (BioRad ProteOn XPR36), average of the three 13E4_WT runs, mAb captured on Protein A, hTfR as analyte, 25 C; Average (n = 3) of the three 13E4_WT runs
T1 sequence (P02786 89-760 limits assumed): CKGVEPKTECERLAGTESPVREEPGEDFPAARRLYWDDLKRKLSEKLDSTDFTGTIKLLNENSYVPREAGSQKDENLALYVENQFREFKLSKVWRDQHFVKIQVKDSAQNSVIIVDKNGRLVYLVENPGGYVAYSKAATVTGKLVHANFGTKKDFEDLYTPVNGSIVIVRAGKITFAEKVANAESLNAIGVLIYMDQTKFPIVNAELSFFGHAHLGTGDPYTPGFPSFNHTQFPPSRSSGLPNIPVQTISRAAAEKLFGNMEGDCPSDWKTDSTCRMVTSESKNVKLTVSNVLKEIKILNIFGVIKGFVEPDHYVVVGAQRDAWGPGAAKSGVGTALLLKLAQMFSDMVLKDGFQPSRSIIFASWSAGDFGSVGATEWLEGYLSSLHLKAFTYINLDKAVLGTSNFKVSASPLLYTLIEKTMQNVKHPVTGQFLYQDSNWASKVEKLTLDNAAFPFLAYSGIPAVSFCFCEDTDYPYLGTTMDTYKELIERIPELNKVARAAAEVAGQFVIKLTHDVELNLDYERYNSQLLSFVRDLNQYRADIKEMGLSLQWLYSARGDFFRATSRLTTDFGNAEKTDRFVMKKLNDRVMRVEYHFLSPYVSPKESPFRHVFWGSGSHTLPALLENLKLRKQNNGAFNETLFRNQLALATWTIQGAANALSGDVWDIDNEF
Procedure: (§1) The binding kinetics of nine exemplary humanized anti-TfR antibodies and the parent chimeric antibody were characterized. Studies were run on a BioRad ProteOn XPR36 optical biosensor using a GLM sensor chip coated with Protein A for mAb capture. Running buffer included 10 mM EPES, 150 mM NaCl, pH 7.4 with 0.05 tween-20 with 0.2 mg/ml BSA. Data were collected at 25 degrees C. All mAbs were diluted into running buffer to 2 ug/ml based on the stock concentration provided. Each was then captured for 40 seconds over a Protein A surface.
(§2) hTfR (100 ug) was dissolved into […] of water to yield a 4.3 uM stock concentration. hTfR was dilted to 43 nM as the highest concentration and tested in a 3 fold dilution series. hTfR was injected at 200 ul/min for 2 minutes followed by a one-hour dissociation phase.

[2] = target: T1, hTfR (human transferrin receptor, …); assay: SPR (BioRad ProteOn XPR36), mAb captured on Protein A, hTfR as analyte, 25 C; 13E4_WT 2nd run
Procedure: as §1, §2

[3] = target: T1, hTfR (human transferrin receptor, …); assay: SPR (BioRad ProteOn XPR36), average of the three 13E4_WT runs, mAb captured on Protein A, hTfR as analyte, 25 C
Procedure: as §1, §2

[4] = target: T2, recombinant human transferrin receptor protein (Sino Biological 11020-H07H) (human, UniProt P02786 89-760); assay: ELISA on plate-coated recombinant human TfR1 (CD71); fit: specific binding with Hill slope
T2 construct: Bought protein coated on ELISA plates; also called recombinant human TfR1; human TfR1
T2 sequence (P02786 89-760 limits assumed): as above
Procedure: Half-well high-binding 96-well plates (Costar #3690) were coated with recombinant human transferrin receptor protein (Sino Biological 11020-H07H) or recombinant cyno transferrin receptor protein (Sino Biological 90253-C07H) at 1 ng/μL in PBS (Gibco 14190) and incubated overnight at 4° C. Plates were washed four times with 100 μL of Tris buffered saline+Tween (20×TBST, Cell Signaling 9997S). 100 μL of Superblock (ThermoFisher PI-37535) was added to each well and incubated for 1 hour at room temperature. The wash step was repeated before the addition of the samples. Samples were added at concentrations up to 10 nM, 50 μL/well. Plates were incubated for another hour at room temp and wash step repeated. Secondary antibody (Peroxidase AffiniPure Goat Anti-Human IgG, Fcγ Fragment Specific, Jackson Immunoresearch, 109-035-098) was diluted 1:5000 in Superblock and 50 μL/well added. Plates were incubated for 1 hour at room temperature and washed one more time. Binding was measured by the addition of 50 μL of 1-Step™ Ultra TMB-ELISA (ThermoFisher, 34028), incubated for 5 minutes, and the reaction was stopped with the addition of 25 μL of Stop Solution 2N sulfuric Acid (R&D Systems DY994). Absorbance was measured at 450 nm, with reference wavelength 570 nm subtracted. Binding constants were determined using GraphPad Prism Specific Binding with Hill Slope.

[5] = target: T3, recombinant cyno transferrin receptor protein (Sino Biological 90253-C07H) (cyno, UniProt H9EXL1 89-760 (rhesus entry)); assay: ELISA on plate-coated recombinant cyno TfR1 (CD71); fit: specific binding with Hill slope
T3 construct: Bought protein coated on ELISA plates; also called recombinant cyno TfR1; cynoTfR1
T3 sequence (chain, as listed by the source C07H C07H): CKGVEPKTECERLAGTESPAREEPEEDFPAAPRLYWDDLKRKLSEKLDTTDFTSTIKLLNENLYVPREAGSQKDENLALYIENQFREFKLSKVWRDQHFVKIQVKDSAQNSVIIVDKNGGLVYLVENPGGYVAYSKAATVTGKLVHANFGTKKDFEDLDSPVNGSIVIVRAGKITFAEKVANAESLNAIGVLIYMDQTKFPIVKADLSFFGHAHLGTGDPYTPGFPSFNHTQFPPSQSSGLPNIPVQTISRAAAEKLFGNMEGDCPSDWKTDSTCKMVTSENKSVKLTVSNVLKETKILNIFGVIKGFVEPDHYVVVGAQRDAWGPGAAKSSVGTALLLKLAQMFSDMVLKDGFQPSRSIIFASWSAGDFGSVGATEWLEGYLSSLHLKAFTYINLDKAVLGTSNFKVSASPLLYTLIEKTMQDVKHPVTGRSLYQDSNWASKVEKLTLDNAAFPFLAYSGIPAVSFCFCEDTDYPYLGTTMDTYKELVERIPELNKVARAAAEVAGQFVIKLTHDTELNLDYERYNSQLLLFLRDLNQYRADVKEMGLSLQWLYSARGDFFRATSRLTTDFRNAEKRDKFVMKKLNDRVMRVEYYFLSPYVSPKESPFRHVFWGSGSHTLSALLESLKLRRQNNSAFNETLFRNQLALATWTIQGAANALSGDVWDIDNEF
Outline: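 Plates coated overnight at 4° C with recombinant human or cyno TfR1 (1 ng/μL), blocked, then incubated with samples up to 10 nM for 1 h at room temperature. Bound IgG detected with HRP anti-human Fcγ and TMB (A450 minus A570); Bmax, h and Kd from specific-binding-with-Hill-slope fit.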

[6] = target: T1, hTfR (human transferrin receptor, …); assay: SPR (BioRad ProteOn XPR36), mAb captured on Protein A, hTfR as analyte, 25 C
Outline: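 Antibodies at 2 ug/ml were captured on a Protein A GLM chip for 40 s. hTfR was injected as analyte from 43 nM in a 3-fold series, 2 min association and 1 h dissociation. Run at 25 degrees C in HEPES/150 mM NaCl pH 7.4 with tween-20 and 0.2 mg/ml BSA.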

[7] = target: T1, hTfR (human transferrin receptor, …); assay: ELISA; ratio of the Kd on transferrin-captured hTfR to the Kd on directly coated hTfR
Outline: (§3)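 Human holo-transferrin coated at 500 ng/mL (4 °C overnight) captured hTfR (200 ng/mL, 30 min); comparison plates carried directly coated hTfR. Biotinylated antibodies, 3-fold series from 20 nM (pre-addition), bound 1 h; streptavidin-HRP/TMB, A450 minus A570. Kd from specific binding with Hill slope; shift judged against reference antibody AF2474 with transferrin-overlapping epitope.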

[8] = target: T1, hTfR (human transferrin receptor, …); assay: ELISA; ratio of the Kd on HFE-captured hTfR to the Kd on directly coated hTfR
[9] = target: T1, hTfR (human transferrin receptor, …); assay: ELISA, biotinylated antibody on hTfR captured by plate-coated human holo-transferrin (Tf+TfR); fit: specific binding with Hill slope
Outline: as §3

B1: 13E4_WT (parent chimeric anti-TfR antibody) (antibody, V domains shown)
VH: QVQLQQPGAELVKPGASVKLSCKASGYTFTNYWMHWVKQRPGQGLEWIGEINPINGRSNYGERFKTKATLTVDKSSSTAYMQLSSLTSEDSAVYYCARGTRAMHYWGQGTSVTVSS
VL: DIQMTQSPASLSVSVGETVTITCRTSENIYNNLAWYQQKQGKSPQLLVYAATNLADGVPSRFSGSGSGTQYSLKINSLQSEDFGNYYCQHFWGTPLTFGAGTKLELK
notes: also called 13E4_WT 1st; 13E4_WT 2nd
kon [1]: 900000 M⁻¹ s⁻¹ | koff [2]: 1.5e-06 s⁻¹ | Kd [3]: 1.1 pM | koff [3]: 1e-06 s⁻¹ | Bmax [4]: 98.3 % max binding | Kd [4]: 6.2 pM | h [4]: 1.18 | Bmax [5]: 99.1 % max binding | Kd [5]: 5.82 pM | h [5]: 1.34 | kon [6]: 1.06e+06 M⁻¹ s⁻¹ and 903000 M⁻¹ s⁻¹ and 840000 M⁻¹ s⁻¹ | Kd(Tf+TfR)/Kd(TfR) [7]: 3.1 | Kd(HFE+TfR)/Kd(TfR) [8]: 16.9 | Bmax [9]: 3.45 A450 | Kd [9]: 0.0518 nM | h [9]: 1.57
